Source: PMC314469, “Protein Interaction Networks by Proteome Peptide Scanning” (PLoS Biology, 2004)
Blank lines part the entries; values can stand above or below the binder they belong to.

Biological target: T1, Abp1 SH3 (ABP1_YEAST), P15891
T1 chain: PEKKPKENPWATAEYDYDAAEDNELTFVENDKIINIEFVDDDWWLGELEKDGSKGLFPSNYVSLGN
Experiment: SPOT array

B1: YGL073W 519-532 (peptide)
chain: NYNSNNNAGSPIRP
normalised SPOT signal, Boehringer light units (BLU); mean over the file's lines of this peptide: 58.5

B2: YDL064W 59-72 (peptide)
chain: PITVEYPNEYPSKP
normalised SPOT signal, Boehringer light units (BLU); mean over the file's lines of this peptide: 96.3

B3: YGR270W 562-574 (peptide)
chain: NRPDAVDPALRRP
normalised SPOT signal, Boehringer light units (BLU); mean over the file's lines of this peptide: 53.9

B4: YGR237C 285-298 (peptide)
chain: NVTDPLAAIYPSRP
normalised SPOT signal, Boehringer light units (BLU); mean over the file's lines of this peptide: 40.9

B6: YCL054W 71-84 (peptide)
chain: NSLIIGVDIVPMKP
normalised SPOT signal, Boehringer light units (BLU); mean over the file's lines of this peptide: 175

B10: YHR182W 754-767 (peptide)
chain: PFKTSSTPTTPERP
normalised SPOT signal, Boehringer light units (BLU); mean over the file's lines of this peptide: 138

B11: YDL240W 709-722 (peptide)
chain: NRMKIMMSMEPKKP
normalised SPOT signal, Boehringer light units (BLU); mean over the file's lines of this peptide: 810

B12: YBR102C 23-35 (peptide)
chain: PAKQKTPPSPAKP
normalised SPOT signal, Boehringer light units (BLU); mean over the file's lines of this peptide: 557

B14: YDR433W 131-144 (peptide)
chain: PEMLHVKDHQPGKP
normalised SPOT signal, Boehringer light units (BLU); mean over the file's lines of this peptide: 120

B16: YKL145W 356-368 (peptide)
chain: NRPNTLDPALLRP
normalised SPOT signal, Boehringer light units (BLU); mean over the file's lines of this peptide: 89.2

B18: YGR092W 45-57 (peptide)
chain: PAGINDSPSPVKP
normalised SPOT signal, Boehringer light units (BLU); mean over the file's lines of this peptide: 117

B20: YDR464W 659-672 (peptide)
chain: PDLRLTKSGKPKKP
normalised SPOT signal, Boehringer light units (BLU); mean over the file's lines of this peptide: 131

B22: YGR156W 131-144 (peptide)
chain: PFEMVTEVPIPRRP
normalised SPOT signal, Boehringer light units (BLU); mean over the file's lines of this peptide: 688

B23: YGL025C 234-247 (peptide)
chain: NSTAAAPIAAPKKP
normalised SPOT signal, Boehringer light units (BLU); mean over the file's lines of this peptide: 201

B26: YKL064W 123-135 (peptide)
chain: PIMKFSTPSYKKP
normalised SPOT signal, Boehringer light units (BLU); mean over the file's lines of this peptide: 726

B28: YCR004C 43-56 (peptide)
chain: PDEVLTKMNAPQKP
normalised SPOT signal, Boehringer light units (BLU); mean over the file's lines of this peptide: 81.4

B29: YGR285C 16-28 (peptide)
chain: NSSATKTPFVRRP
normalised SPOT signal, Boehringer light units (BLU); mean over the file's lines of this peptide: 4320

B31: YDR091C 569-581 (peptide)
chain: NVTFRRDPNSFRP
normalised SPOT signal, Boehringer light units (BLU); mean over the file's lines of this peptide: 363

B32: YER047C 483-496 (peptide)
chain: NSSSKKTSSHPSRP
normalised SPOT signal, Boehringer light units (BLU); mean over the file's lines of this peptide: 73.4

B33: YLR082C 61-74 (peptide)
chain: NSMTGIAQILPTKP
normalised SPOT signal, Boehringer light units (BLU); mean over the file's lines of this peptide: 185

B34: YJR083C 40-53 (peptide)
chain: PESKSPRVTTPLKP
normalised SPOT signal, Boehringer light units (BLU); mean over the file's lines of this peptide: 140

B36: YER134C 18-31 (peptide)
chain: PSYSDTHLHGPFKP
normalised SPOT signal, Boehringer light units (BLU); mean over the file's lines of this peptide: 80.2

B37: YCL044C 243-255 (peptide)
chain: PIIKWFGPLEYKP
normalised SPOT signal, Boehringer light units (BLU); mean over the file's lines of this peptide: 85.4

B38: YLL019C 65-78 (peptide)
chain: NSLDLNQADNPLRP
normalised SPOT signal, Boehringer light units (BLU); mean over the file's lines of this peptide: 23.6

B39: YBL081W 344-356 (peptide)
chain: NVSSSSQPASSRP
normalised SPOT signal, Boehringer light units (BLU); mean over the file's lines of this peptide: 136

B40: YLL034C 677-689 (peptide)
chain: NRPDMIDPAMLRP
normalised SPOT signal, Boehringer light units (BLU); mean over the file's lines of this peptide: 19.2

B41: YBR041W 461-474 (peptide)
chain: PGEMLMRIFFPKKP
normalised SPOT signal, Boehringer light units (BLU); mean over the file's lines of this peptide: 561

B42: YGL137W 97-110 (peptide)
chain: PDYIRSIAVHPTKP
normalised SPOT signal, Boehringer light units (BLU); mean over the file's lines of this peptide: 51.9

B43: YGL195W 2278-2290 (peptide)
chain: NVLFIKIPMFLRP
normalised SPOT signal, Boehringer light units (BLU); mean over the file's lines of this peptide: 79.2

B44: YCL014W 801-814 (peptide)
chain: NVTKETKEILPVKP
normalised SPOT signal, Boehringer light units (BLU); mean over the file's lines of this peptide: 43

B46: YGR024C 108-121 (peptide)
chain: NYVALWAKFFPEKP
normalised SPOT signal, Boehringer light units (BLU); mean over the file's lines of this peptide: 103

B47: YER109C 669-681 (peptide)
chain: NRNTLSTPEEKKP
normalised SPOT signal, Boehringer light units (BLU); mean over the file's lines of this peptide: 201

B49: YDL053C 27-40 (peptide)
chain: NSNGPTPAVLPQKP
normalised SPOT signal, Boehringer light units (BLU); mean over the file's lines of this peptide: 56

B50: YLR072W 386-399 (peptide)
chain: PFHVQETMDFPYKP
normalised SPOT signal, Boehringer light units (BLU); mean over the file's lines of this peptide: 53

B51: YDL126C 634-646 (peptide)
chain: NRPDQIDPAILRP
normalised SPOT signal, Boehringer light units (BLU); mean over the file's lines of this peptide: 45.4

B52: YDR436W 382-395 (peptide)
chain: NTMVEMKRKKPVRP
normalised SPOT signal, Boehringer light units (BLU); mean over the file's lines of this peptide: 1120

B53: YFL011W 29-42 (peptide)
chain: PETREASLDIPYKP
normalised SPOT signal, Boehringer light units (BLU); mean over the file's lines of this peptide: 16.9

B54: YLR397C 390-402 (peptide)
chain: NRPNSVDPALRRP
normalised SPOT signal, Boehringer light units (BLU); mean over the file's lines of this peptide: 225

B56: YDR085C 528-541 (peptide)
chain: PDSSFDKVETPPKP
normalised SPOT signal, Boehringer light units (BLU); mean over the file's lines of this peptide: 196

B58: YDR359C 196-208 (peptide)
chain: NSEMASLPISPRP
normalised SPOT signal, Boehringer light units (BLU); mean over the file's lines of this peptide: 64.9

Continued, values first:

normalised SPOT signal, Boehringer light units (BLU); mean over the file's lines of this peptide: 1330
B5: YNL137C 417-429 (peptide)
chain: PKKPFFTPWKPRP

normalised SPOT signal, Boehringer light units (BLU); mean over the file's lines of this peptide: 913
B7: YNL216W 571-584 (peptide)
chain: PEPMKNLTNRPKRP

normalised SPOT signal, Boehringer light units (BLU); mean over the file's lines of this peptide: 5260
B8: YML102W 307-319 (peptide)
chain: NRPAIRIPSLKKP

normalised SPOT signal, Boehringer light units (BLU); mean over the file's lines of this peptide: 20.4
B9: YPR185W 391-403 (peptide)
chain: NSSFFNQPPVHRP

normalised SPOT signal, Boehringer light units (BLU); mean over the file's lines of this peptide: 220
B13: YPL007C 81-93 (peptide)
chain: NSQPVSYPRVSKP

normalised SPOT signal, Boehringer light units (BLU); mean over the file's lines of this peptide: 28.9
B15: YMR042W 16-29 (peptide)
chain: PITGDVETNEPTKP

normalised SPOT signal, Boehringer light units (BLU); mean over the file's lines of this peptide: 330
B17: YPL093W 23-35 (peptide)
chain: NRTQRKTPTVIRP

normalised SPOT signal, Boehringer light units (BLU); mean over the file's lines of this peptide: 89.3
B19: YNL034W 542-555 (peptide)
chain: NSAPQLTVPEPSKP

normalised SPOT signal, Boehringer light units (BLU); mean over the file's lines of this peptide: 0
B21: YNL236W 155-168 (peptide)
chain: NVYKIYNHVMPLKP

normalised SPOT signal, Boehringer light units (BLU); mean over the file's lines of this peptide: 0
B24: YOR259C 328-340 (peptide)
chain: NRPDTLDPALLRP

normalised SPOT signal, Boehringer light units (BLU); mean over the file's lines of this peptide: 705
B25: YNL139C 1491-1504 (peptide)
chain: NSSQRSQLRFPEKP

normalised SPOT signal, Boehringer light units (BLU); mean over the file's lines of this peptide: 131
B27: YMR081C 97-110 (peptide)
chain: PANSTNNSNEPIRP

normalised SPOT signal, Boehringer light units (BLU); mean over the file's lines of this peptide: 67
B30: YOL004W 624-637 (peptide)
chain: PIANTQYGDIPVRP

normalised SPOT signal, Boehringer light units (BLU); mean over the file's lines of this peptide: 520
B35: YNL009W 115-127 (peptide)
chain: PKIPRLVPHWEKP

normalised SPOT signal, Boehringer light units (BLU); mean over the file's lines of this peptide: 14.6
B45: YOR198C 294-306 (peptide)
chain: NSLLVLDPTYVKP

normalised SPOT signal, Boehringer light units (BLU); mean over the file's lines of this peptide: 704
B48: YNL080C 288-301 (peptide)
chain: NRPSVSHSQSPKRP

normalised SPOT signal, Boehringer light units (BLU); mean over the file's lines of this peptide: 116
B55: YMR032W 377-390 (peptide)
chain: NVDDSVLRQKPDKP

normalised SPOT signal, Boehringer light units (BLU); mean over the file's lines of this peptide: 103
B57: YPL008W 555-568 (peptide)
chain: NYSIKYMLLEPSKP
